Assay: yeast display, Sf9 membrane polyspecificity reagent, FACS + sequencing; frameworks hold sequencing errors
Outline: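 A nanobody's polyreactivity label depends on the gate it was sorted from. Yeast display cells were stained with 10% biotinylated, detergent-solubilized Sf9 membrane reagent for 1 hour at 4 °C, enriched on streptavidin microbeads and sorted by FACS. The low and high (top ~1%) gates were set on anti-HA fluorescence for expression and streptavidin fluorescence for reagent binding.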

Row | Sequence | polyreactivity (PSR sort gate)
1 | QVQLVESGGGLVQAGGSLRLSCAASGRILTNYVMGWYRQAPGKERELVAAITDSGGITYADSVKGRFTISRDNAKNTVYLQMNSLKPEDTAVYYCAAVRFFLYYFDFSAYDYWGQGTQVTVSS | low polyreactivity
2 | QVQLVESGGGLVQAGGSLRLSCAGSGRIFLDKAMGWYRQAPGKERELVAAINGSGGSTYYADSVKGRFTISRDNAKNTVYLQMNSLKPKIPRSITATKRYIQSLWGFDYWGQGTQVTVSS | low polyreactivity
3 | QFQLVESGGGLVQAGGSLRLSCAASGRTFRGYAMGWYRQAPGKERELVPAITWRGGSTYYADSVKGRFTISRDNAKNTVYLQMKSLKPEDTAVYYCNTLVWSYLGGYYSRYDYWGQGTQVTVSS | high polyreactivity
4 | QVQLGESGGGLVQAGGSLRLSCAASGRIYAAYAMGWSRQAPGKERELVAAISGSGGSTSYADSVKGRFTISRDNAKNTVYLQMNSLKPEYTAVYYCAADYSYLAEFDYWGQGTQVTVSS | low polyreactivity
5 | PVQLVESGGGLVQAGGPLRLSCAASGFNITSYVMGWYRPAPGKERELVAAISAGGGSTYYADSVKGRFTISRDNAKNTVYLQMNSLIPDDTAVYYCAADPLYEQIYYAIYHYNDGYDYWGQGTQVTVSS | high polyreactivity
6 | QVQLVESGGGLVQAGGSLRISCADSGSIFGYNAMGWYRQAPGKERELVAAISWSGGRTYYADSVKGRFTISRDNAKNTVSFQMNSLKPEDTAVYYCAAPSTGTYGSDYWGHGTQVTVSS | high polyreactivity
7 | QEQLQESGGGLVLAGGSLRLSCSASGNISVYGSMGWYRQAPGKELEFVATIDPGTNTNYADSVKDRFTISRDNAKNTVYLQMNSLKPEDRAVYYCAVEAGSDWPFRYWGQGTQVTVSS | low polyreactivity
8 | QVQLVESGGGVVQAGGSLRLSCAASGSTLAGYAMGWYRPAPGKERELVAAIDWTGGSTTYADSVKGRFTISRDYAKNTVYLQMNCLKPDDTAVYSCNVVLGVNGDYWGQGCQVTVSS | low polyreactivity
9 | QVQLVESGVGLVQAGGSLRLSCASSGRIFGHYAMGWYRQAPGTERELVAAISWRGGRTYYADSVKGRFTISRDHAKNTVYLQMNSLKPEDTAVYYCAAGSSRVFRKAGITRPSGLYYYWGQGTQVSVSS | high polyreactivity
10 | QVQLVESGGGLLQAGGSLRLSCAASGRTFSVNAMGWYRQAPGKERELVATITWSGSSTSYADSVKGRFTISRDNAKNTVDLQMNSLKPEDTAVYYCAADLWTLIYLTDTYGHWGQATQVTVSS | low polyreactivity
11 | QVQLVESGGVLVQAGGSLRLSCAASGLIFSRYVMGWYRQAPGKERELVAAISRSGGSTYYADSVKGRFTISRDNAKNTVYLQMNSLKPEDTAVYYCNKLAPAPEADDYWGQGTQLTVSS | high polyreactivity
12 | QVQLVESGGGLVQAGGSLRLSCAASGSIFLTNVMGWYRQAPGKERELVAAISSGGNTYYADSVKGRFTISRDNAKNTVYLQMNSLKPEDTAVYYCAVRYRYDYWGQGTQVTVSS | high polyreactivity
13 | QVQLVESGGGLVQAGGSLRVSCAASGSTFGTYGMGWYRPAPGKERELVADITSGGSTYYADSVKGRFTISRDNAKNTVYLQMNSLTPEDTAVYYCAASWFVWSTAVPYDYWGQGTQVTVSS | low polyreactivity
14 | QVQLVESGGGLVQAGGSLRLSCAASGSIFVRNTMGWYRQAPGKERELVATISSGGRTNYADSVKGRFTISRDNAKNTVYLQMNSLKPEDTAVYYCNRPRWYGGSPYYYWGQGTQVTVSS | high polyreactivity
15 | QVQLVESGGGLVQAGGSLRLSCAASGFIFYYYAMGWYRQAPGKVRELVAAISTDGGSTYYADSVKGRFTISRDNAKNTVYLQMNSLKPEDTADYYCNAPYYGWGYWPLEYIRYEYWGQGTQVTVSS | low polyreactivity
16 | QVQLVESGGGLVQAGGSLRLSCAASGRTFYSYAMGWYRQAPGKERELVAAISYTGASTFYADSVKGRFTISRDNAKNTVYLQMNSLKPEDTAVYYCAARKVRFGVDYWGPGTQVTVSS | high polyreactivity
17 | QVQLVESGGGLVQAGGSLRLSCAASGITFDKYPMGRYRPAPGKDRELVAAISGSDGSTYYADSVKGRFTISRDNAKNSVYVQMNSLKPDDTAVYDCAAESVYAGTYEYDYWGQGTQVTVSS | low polyreactivity
18 | QVHLVESGGGLVQAGGSLRLSCAASGSTFAGNTMGWYRQAPGKERELVASITSDGSTDYADSVKGRFTISRDNAKNTVYLQMNSLKPEDTAVYYCAIARGLSKMDSWGQGTQVTVSS | low polyreactivity
19 | QVQLVETGGGLVQAGGSLRLSCAASGRIFYLYAMGWYRQAPGKEWELVAAISSSGGSTYYADSVKGRFTISRDNAKTTVYLQMNSLKPEDTAVYYCNARRRTVPYRYDYWGQGTQVTVSS | high polyreactivity
20 | QVQLVESGGGLVQAGGSLRLSCAASGRTFRNYAMGWYRQAPAKERELVAAITWSGGSTYYADSVKGRFTISRDNSKNTVYLQMYSLKPEDTAVYYCNVRSYTRTYNYWGQGTQVTVSS | high polyreactivity
21 | QVQLVESGGGLVQAGGSLRLSCAASGSTFSGNTMGWYRQAPGKERELVADINWSSGSTYYADSVKGRFTISRDNAKNTVYLQMNSLKPEDTAVYYCAAVEPFYDFDYWGQGTQVTVSS | low polyreactivity
22 | QVQLVESGGGLVQAGGSLRLSCAASGSTITSYAMRLYRQAPGKDRELVASISRSGGRTYYADSVKGRFTISRDNAKNTVYLQMNSLKPEDTAVYYCAADDYSATTRYYYWGQGTQVTVSS | high polyreactivity

Row | Sequence | polyreactivity (PSR sort gate)
23 | QVQLVESGGGLVQAGGSLRLSCAASGRIFYFNAMGWYRQAPGKERELVAAISWSGSRTFYADSVTGRFTISRDNAKNTVYLQMNSLKPEDTAVYYCAVRGYMWNAGNTIRRDYWGQGTQVTVSS | high polyreactivity
24 | QVQLVESGGGLVQAGGSLRLSCAASGSIFVYNAMGWYRQAPGKERELVAAISTSGGRTYYADSVKGRFTISRDNAKNTVYLQMNSLKPEDTAVYYCNALGYWRRVVDGFDYWGQGTQVTVSS | high polyreactivity
25 | PVQLVESGGVLVQAGGSLRLSCAASGFTFWLYAMGWYRQAPGNEREFVAAISPSGGSTYADSVKGRFTLSRDNAKNTVYLPMNRLKPEDTAVYYCNDGYLLYYDYHLFYWGQGTQLTVSS | low polyreactivity
26 | QVQLVESGGGLVQAGGSLRLSCAASGFTFGTYNMGWSRQAPGKERELVASISRRGGRTDYADSVKGRFTISRHNAKNTVYLQMNSLKPEDTAVYYCNAAYPYGGFPYDYWGQGTQVTVSS | high polyreactivity
27 | QVQLVESGGGLVQAGGSLRLSCAASGSTFSEKAMGWYRQAPGKERELVAAISRRGGSTYYADSVKGRFTISRDNAKNTVYYQMNSLKPEDTAVYYCNVVNSGSFDYDYWGQGTPVTVSS | high polyreactivity
28 | QVQLVESGGGLVQAGGSLRLSCAASGSIFWRYAMGWYRQAPGKERELVAAISSSGSTYYADSVKGRFTISRDNAKNTVYLQMNSLKPEDTAVYYCAKRASALLRHSYDYWGQGTQVSVSS | low polyreactivity
29 | QVQLVESGGGLVQAGGSLRLSCAASGSTFGGYAMGWYRQAPGKERELVATITGGGSTNYADSVKGRFTISRDNAKNTVYLQMNSLKPEDTAVYYCAATEKYQYKVFYDPVGAYDYWGQGTQVTVSS | low polyreactivity
30 | QVQLVESGGGLVQAGGSLRLSCAASGRTFSGYAMGWYRQAPGKERELVAAISWRGGRTYYADSVKGRFTISRDNAKNTVYLQMNSLKPEDTAVYYCATTVGDAGRRYYYWGQGTQVTVSS | high polyreactivity
31 | QVQLVESGGGLVQAGGSLRLSCAASGRIFYRYAMGWYRQAPGKERELVAAINKSGGSTYYADSVKGRFTISRDNGKNTVSLQMKSLKPEDTAVYYCTAVYYWYKGDYWGQGTQVTVSS | high polyreactivity
32 | QVQLVESGGGLVQAGGSLRLSCAASGRIFYANAMGWYRQAPGKERELVAAISSGGSTYYADSVKGRFTISRDNAKNTVYLQMNSLKPEDTAVYYCAALYWVYFYSEYGPWRYDYWGQGTQVTVSS | low polyreactivity
33 | QVQLVESGGGLVQAGGSLRLSCAASGSIFLQNAMGWYRQAPGKERELVAAITNGGSTNYADSVKGRFTISRDNAKHTVYLQLNSLKPEDTAVYYCAAYPLYTGSYDRGGYWGQGTQVTVSS | low polyreactivity
34 | QVQLVESGGGLVQGGGSLRLSCASSGSIFGWNAMGWYRPAPGKERELVAAISFSGSCTFYADSVKGRFTISRDNAKNTVYLQMNSLKPEDTAVYDCAAEPYSVYEYYYWGQGTQVTGSS | high polyreactivity
35 | QVQLVESGGGLVQAGGSLRLSCAASGRIFPFYAMGWYRQAPGKERELVAAISSSGGSTYYADSVKGRFTISRDHAKNTVYFQMNSLKPEDTAVYYCAATRNSDGMGYWGQGTQVTVSS | low polyreactivity
36 | QVQLVESGGGLVQAGGSLRLSCAASGSTFDVNTMGWYRQAPGKERELVAAIRLRGGSTYYADSVKGRFTISRDNAKNTVYLQMYSLKPEDTEVSYCAADYTLIYDYWGQGTQVTVSS | low polyreactivity
37 | QVQLVESGGGLGQAGGSLRLSCAASGFTFSSNAMGWYRQAPGNERALVAAISGNGGITYYADSVKGRFTISRDNAKNTVYLQMNCLKPEDTAVDYCAAEAYRYAWYDYWGQGTQVTVSS | high polyreactivity
38 | QVQLVESGGGLVQAGGSLRLSCAASGRIFASNAMGWYRQAPGKERELVAAIDQGGGSTYYADSVKGRFTISRDNAKNTVYLQMNSLKPEDTAVYDCAADYISAYPRLYNYWGQGTQVTVSS | low polyreactivity
39 | QVQLVESGGGLVQAGGSLRLSCAASGGTFGLNAMGWSRLAPGKARELVADIDGRGGSTYYADSVKGRFTISRDNSKNTVYLQMNSRNPEDTAVYYCAARAPFLSVPSELDYWGQCTQVTVSS | low polyreactivity
40 | QVQLVESGGGLVQAGGSLRLSCAASGRIFSRYGMGWYRQAPGKERELVAGISSSGGSTYYADSVKGRFTISRDNAKNTVYLQMNSLKPEDTAVYYCAADDGFYGPDLDYRGQGTQVTVSS | low polyreactivity
41 | QVQLVESGGGLVQAGGSLRLSCAASGFTFNKNPMGWYRQAPGKEREMVAAITSSGGSTYYADSVQGRFTISRDNAKNTVYLQMNSLKPEDTAVYYCAAYPQAFMADYEYWGQGTQVTVSS | low polyreactivity
42 | QVQLVESGGGLVQAGGSLRLSCAASGSTFSQNAMGWYRQAPGKERELVAAITSGGITYYADSVKGRFTISRDNAKNTVYLQMNSLKPEDTAVYYCAAVTPSGAHRSAYHPISDYWGQGTQVTVSS | low polyreactivity
43 | QVQLVDSGGGLVQAGGSLRLSCAASGRTFIFYAMGWSRQAPGKERELVAAISSGGSTDYADSVKGRFTISRDNAKNTVYLQMNSLKPEDTAVYFCKADTFQYPSTYDYWGQGNQVTVSS | low polyreactivity
